Laboratory results: paper PMC6294562

Target: thrombin (alpha-thrombin) (UniProt P00734;P00734 328-363;364-622)
Test: X-ray crystallography

Question: Does CGCCTAGGTTGGGTAGGGTGGTGGCG (structured_DNA) [NU172 (ARC2172)] bind?
Answer: Result: binds
